What was measured:
[1] = molecular target: LDL receptor-related protein 1 (LRP1), purified from human placenta (human) (UniProt Q07954); assay: SPR equilibrium KD relative to I91L PAI-1
[2] = molecular target: LDL receptor-related protein 1 (LRP1), purified from human placenta (human) (UniProt Q07954); assay: SPR equilibrium analysis, LRP1 immobilised

Sequence of UniProt Q07954 (Q07954 20-4544): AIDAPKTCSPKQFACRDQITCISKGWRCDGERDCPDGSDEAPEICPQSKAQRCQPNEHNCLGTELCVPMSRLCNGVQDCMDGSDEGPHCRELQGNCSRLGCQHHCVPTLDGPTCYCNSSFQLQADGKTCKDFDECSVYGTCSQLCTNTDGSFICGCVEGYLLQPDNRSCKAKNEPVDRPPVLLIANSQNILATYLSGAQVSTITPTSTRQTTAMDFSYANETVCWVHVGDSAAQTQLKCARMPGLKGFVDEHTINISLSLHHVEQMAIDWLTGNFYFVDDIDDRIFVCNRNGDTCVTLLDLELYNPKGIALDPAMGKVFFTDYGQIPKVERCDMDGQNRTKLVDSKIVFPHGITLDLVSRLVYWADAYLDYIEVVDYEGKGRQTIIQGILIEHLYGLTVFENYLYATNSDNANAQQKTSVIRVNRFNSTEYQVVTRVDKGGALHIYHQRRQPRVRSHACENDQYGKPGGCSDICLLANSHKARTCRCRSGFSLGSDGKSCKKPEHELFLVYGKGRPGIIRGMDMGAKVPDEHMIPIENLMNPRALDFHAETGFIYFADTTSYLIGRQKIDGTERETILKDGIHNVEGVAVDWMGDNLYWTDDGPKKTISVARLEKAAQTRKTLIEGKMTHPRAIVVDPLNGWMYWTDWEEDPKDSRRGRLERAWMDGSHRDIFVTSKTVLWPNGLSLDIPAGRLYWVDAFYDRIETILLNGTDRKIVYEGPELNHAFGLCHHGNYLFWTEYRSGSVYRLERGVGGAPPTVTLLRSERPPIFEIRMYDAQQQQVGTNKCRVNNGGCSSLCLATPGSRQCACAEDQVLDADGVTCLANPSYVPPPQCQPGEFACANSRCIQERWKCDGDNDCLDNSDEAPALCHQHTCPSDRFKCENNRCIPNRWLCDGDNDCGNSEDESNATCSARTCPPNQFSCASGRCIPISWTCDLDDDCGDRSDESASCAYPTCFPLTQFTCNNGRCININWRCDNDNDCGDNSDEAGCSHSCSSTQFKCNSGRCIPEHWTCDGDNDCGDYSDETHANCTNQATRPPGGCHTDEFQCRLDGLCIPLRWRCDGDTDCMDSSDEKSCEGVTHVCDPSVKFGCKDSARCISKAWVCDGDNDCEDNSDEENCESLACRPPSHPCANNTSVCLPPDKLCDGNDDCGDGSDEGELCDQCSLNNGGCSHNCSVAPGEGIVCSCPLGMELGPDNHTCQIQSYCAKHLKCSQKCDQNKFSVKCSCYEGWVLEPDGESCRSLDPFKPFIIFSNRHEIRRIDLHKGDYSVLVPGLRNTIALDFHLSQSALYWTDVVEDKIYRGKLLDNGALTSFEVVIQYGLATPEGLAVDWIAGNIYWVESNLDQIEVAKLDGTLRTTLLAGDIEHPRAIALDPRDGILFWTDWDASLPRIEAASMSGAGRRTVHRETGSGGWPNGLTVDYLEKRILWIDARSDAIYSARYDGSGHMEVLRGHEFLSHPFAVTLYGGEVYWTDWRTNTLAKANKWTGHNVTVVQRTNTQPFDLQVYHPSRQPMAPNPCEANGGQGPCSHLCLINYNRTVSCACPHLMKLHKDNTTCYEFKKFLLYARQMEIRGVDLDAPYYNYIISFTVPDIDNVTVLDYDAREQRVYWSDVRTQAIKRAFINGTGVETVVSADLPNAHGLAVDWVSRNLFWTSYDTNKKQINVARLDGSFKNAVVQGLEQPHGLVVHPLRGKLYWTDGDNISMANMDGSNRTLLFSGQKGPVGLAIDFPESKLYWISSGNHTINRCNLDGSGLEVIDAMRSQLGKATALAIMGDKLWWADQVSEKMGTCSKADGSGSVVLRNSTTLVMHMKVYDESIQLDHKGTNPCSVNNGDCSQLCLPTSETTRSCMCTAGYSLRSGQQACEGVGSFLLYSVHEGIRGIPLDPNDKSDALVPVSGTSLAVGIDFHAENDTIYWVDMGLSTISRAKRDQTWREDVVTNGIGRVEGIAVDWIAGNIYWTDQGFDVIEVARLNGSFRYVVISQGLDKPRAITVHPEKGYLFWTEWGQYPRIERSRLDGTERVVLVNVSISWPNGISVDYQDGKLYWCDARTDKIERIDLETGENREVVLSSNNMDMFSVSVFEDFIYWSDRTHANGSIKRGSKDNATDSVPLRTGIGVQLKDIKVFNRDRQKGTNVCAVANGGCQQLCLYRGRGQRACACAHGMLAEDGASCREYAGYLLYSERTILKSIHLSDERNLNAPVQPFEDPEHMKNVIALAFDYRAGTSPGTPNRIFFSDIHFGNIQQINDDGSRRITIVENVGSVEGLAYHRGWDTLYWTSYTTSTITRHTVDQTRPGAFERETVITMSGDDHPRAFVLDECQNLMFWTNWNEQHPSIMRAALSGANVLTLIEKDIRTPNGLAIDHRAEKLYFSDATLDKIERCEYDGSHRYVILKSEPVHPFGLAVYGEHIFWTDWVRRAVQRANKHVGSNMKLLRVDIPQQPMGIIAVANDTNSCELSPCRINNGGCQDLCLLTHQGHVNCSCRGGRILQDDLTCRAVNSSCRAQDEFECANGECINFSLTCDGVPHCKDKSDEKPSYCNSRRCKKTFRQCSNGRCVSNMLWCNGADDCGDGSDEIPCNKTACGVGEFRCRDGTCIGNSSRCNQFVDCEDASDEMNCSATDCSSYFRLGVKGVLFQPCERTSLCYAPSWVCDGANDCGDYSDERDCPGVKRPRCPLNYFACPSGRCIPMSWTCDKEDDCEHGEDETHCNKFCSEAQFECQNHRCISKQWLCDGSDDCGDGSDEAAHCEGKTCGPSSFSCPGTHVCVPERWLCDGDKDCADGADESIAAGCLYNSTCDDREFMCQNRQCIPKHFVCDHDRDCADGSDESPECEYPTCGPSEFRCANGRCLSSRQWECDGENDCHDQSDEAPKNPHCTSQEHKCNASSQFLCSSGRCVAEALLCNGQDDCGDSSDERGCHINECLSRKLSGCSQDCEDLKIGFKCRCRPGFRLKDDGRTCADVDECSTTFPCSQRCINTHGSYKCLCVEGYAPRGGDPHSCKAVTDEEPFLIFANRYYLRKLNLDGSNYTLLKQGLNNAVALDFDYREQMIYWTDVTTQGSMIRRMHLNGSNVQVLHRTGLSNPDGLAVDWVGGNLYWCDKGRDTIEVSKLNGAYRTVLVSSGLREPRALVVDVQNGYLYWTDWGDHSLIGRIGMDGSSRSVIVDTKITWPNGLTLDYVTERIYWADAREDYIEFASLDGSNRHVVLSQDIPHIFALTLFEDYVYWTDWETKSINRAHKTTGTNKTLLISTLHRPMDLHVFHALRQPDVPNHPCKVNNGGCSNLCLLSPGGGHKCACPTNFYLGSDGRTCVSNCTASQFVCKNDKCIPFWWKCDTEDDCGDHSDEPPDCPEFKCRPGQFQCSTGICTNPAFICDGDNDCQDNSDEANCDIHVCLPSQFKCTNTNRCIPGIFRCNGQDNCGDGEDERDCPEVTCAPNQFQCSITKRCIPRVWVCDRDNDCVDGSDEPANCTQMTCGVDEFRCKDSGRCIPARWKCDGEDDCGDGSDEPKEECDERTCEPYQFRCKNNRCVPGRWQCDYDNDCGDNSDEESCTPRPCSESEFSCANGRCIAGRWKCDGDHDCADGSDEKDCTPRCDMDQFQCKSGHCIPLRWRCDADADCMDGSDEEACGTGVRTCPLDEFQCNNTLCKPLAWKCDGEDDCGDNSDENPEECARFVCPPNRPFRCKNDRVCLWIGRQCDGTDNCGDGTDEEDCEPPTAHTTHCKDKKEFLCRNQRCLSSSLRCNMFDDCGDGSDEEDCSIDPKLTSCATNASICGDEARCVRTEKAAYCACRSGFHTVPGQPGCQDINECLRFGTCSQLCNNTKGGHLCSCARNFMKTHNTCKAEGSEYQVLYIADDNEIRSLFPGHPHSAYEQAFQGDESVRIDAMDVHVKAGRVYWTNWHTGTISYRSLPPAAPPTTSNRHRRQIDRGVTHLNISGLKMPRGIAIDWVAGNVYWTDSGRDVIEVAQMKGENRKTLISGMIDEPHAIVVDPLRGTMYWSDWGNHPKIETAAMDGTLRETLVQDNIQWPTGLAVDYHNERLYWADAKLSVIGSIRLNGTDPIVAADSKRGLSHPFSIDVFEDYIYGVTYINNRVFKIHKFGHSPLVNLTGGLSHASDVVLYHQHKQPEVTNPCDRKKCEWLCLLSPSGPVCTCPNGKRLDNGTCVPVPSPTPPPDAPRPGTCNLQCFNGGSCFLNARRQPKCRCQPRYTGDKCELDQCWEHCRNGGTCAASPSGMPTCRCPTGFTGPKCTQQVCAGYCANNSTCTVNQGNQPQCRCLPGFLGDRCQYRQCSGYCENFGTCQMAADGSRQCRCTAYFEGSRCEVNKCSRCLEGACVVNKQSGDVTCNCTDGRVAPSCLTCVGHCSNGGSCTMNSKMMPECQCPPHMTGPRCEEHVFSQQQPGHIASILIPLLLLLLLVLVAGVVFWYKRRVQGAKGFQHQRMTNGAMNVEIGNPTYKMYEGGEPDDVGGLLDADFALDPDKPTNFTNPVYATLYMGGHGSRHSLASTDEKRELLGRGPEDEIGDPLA

Fold change [1]: 32 fold | Kd [2]: 1.77 µM
Substance: 14-1B R76E PAI-1 (from UniProt P05121 24-402)
